Laboratory results reported in paper PMC5628404 (2017).
Where two headings read alike, the source gives them in different places.

Columns and labels:
Experiment in all cases: SPR
[1] = target: T1, K27-linked di-ubiquitin (K27-Ub2) (human, UniProt P0CG48 1-76, isopeptide linkage between the C-terminal glycine of one ubiquitin and K27 of the other)
[2] = target: T2, M1-linked di-ubiquitin chain (M1-Ub2) (human, UniProt P0CG48 1-76; P0CG48 1-76)
[3] = target: M1-linked tetra-ubiquitin chain (M1-Ub4) (human, UniProt P0CG48 1-76; P0CG48 1-76; P0CG48 1-76; P0CG48 1-76)
[4] = target: M1-linked tri-ubiquitin chain (M1-Ub3) (human, UniProt P0CG48 1-76; P0CG48 1-76; P0CG48 1-76)
[5] = target: T1, K27-linked di-ubiquitin (K27-Ub2); remark: listed apart in the source
[6] = target: T2, M1-linked di-ubiquitin chain (M1-Ub2); remark: listed apart in the source
[7] = target: T3, K63-linked di-ubiquitin (K63-Ub2) (human, UniProt P0CG48 1-76, isopeptide linkage between the C-terminal glycine of one ubiquitin and K63 of the other)
[8] = target: T1, K27-linked di-ubiquitin (K27-Ub2); remark: listed apart in the source
[9] = target: T2, M1-linked di-ubiquitin chain (M1-Ub2); remark: listed apart in the source
[10] = target: T3, K63-linked di-ubiquitin (K63-Ub2); remark: listed apart in the source

B1: BRAP (124–569) (RNF52 domain) (domain or fragment)
chain: DQISFFSGNPSVEIVHGIMHLYKTNKMTSLKEDVRRSAMLCILTVPAAMTSHDLMKFVAPFNEVIEQMKIIRDSTPNQYMVLIKFRAQADADSFYMTCNGRQFNSIEDDVCQLVYVERAEVLKSEDGASLPVMDLTELPKCTVCLERMDESVNGILTTLCNHSFHSQCLQRWDDTTCPVCRYCQTPEPVEENKCFECGVQENLWICLICGHIGCGRYVSRHAYKHFEETQHTYAMQLTNHRVWDYAGDNYVHRLVASKTDGKIVQYECEGDTCQEEKIDALQLEYSYLLTSQLESQRIYWENKIVRIEKDTAEEINNMKTKFKETIEKCDNLEHKLNDLLKEKQSVERKCTQLNTKVAKLTNELKEEQEMNKCLRANQVLLQNKLKEEERVLKETCDQKDLQITEIQEQLRDVMFYLETQQKINHLPAETRQEIQEGQINIAMASA
Kd [1]: 171 nM
Kd [2]: 60.8 nM
Kd [3]: 22 nM
Kd [4]: 48.5 nM

B2: BRAP (1–592) (full-length) (natural protein)
chain: MSVSLVVIRLELAEHSPVPAGFGFSAAAGEMSDEEIKKTTLASAVACLEGKSPGEKVAIIHQHLGRREMTDVIIETMKSNPDELKTTVEERKSSEASPTAQRSKDHSKECINAAPDSPSKQLPDQISFFSGNPSVEIVHGIMHLYKTNKMTSLKEDVRRSAMLCILTVPAAMTSHDLMKFVAPFNEVIEQMKIIRDSTPNQYMVLIKFRAQADADSFYMTCNGRQFNSIEDDVCQLVYVERAEVLKSEDGASLPVMDLTELPKCTVCLERMDESVNGILTTLCNHSFHSQCLQRWDDTTCPVCRYCQTPEPVEENKCFECGVQENLWICLICGHIGCGRYVSRHAYKHFEETQHTYAMQLTNHRVWDYAGDNYVHRLVASKTDGKIVQYECEGDTCQEEKIDALQLEYSYLLTSQLESQRIYWENKIVRIEKDTAEEINNMKTKFKETIEKCDNLEHKLNDLLKEKQSVERKCTQLNTKVAKLTNELKEEQEMNKCLRANQVLLQNKLKEEERVLKETCDQKDLQITEIQEQLRDVMFYLETQQKINHLPAETRQEIQEGQINIAMASASSPASSGGSGKLPSRKGRSKRGK
koff [5]: 0.00302 s⁻¹
koff [6]: 0.00264 s⁻¹
koff [7]: 0.00395 s⁻¹
Kd [8]: 6.27 nM
Kd [9]: 5.19 nM
Kd [10]: 11.3 nM
